Source: publication PMC4480739, “Oncogenic mutations of thyroid hormone receptor β” (Oncotarget, 2015)

Legend:
[1] = target: GST fused p85α-CSH2 (C-terminal Src-homology 2 domain of p85α) (UniProt P27986); assay: pull-down; GST-CSH2 (~5 μg, E. coli expressed) incubated with equal amounts of in vitro translated TRβ1 or mutants, in the presence of T3; bound receptor detected by Western blot with anti-TRβ1; band intensities quantified with ImageJ
[2] = target: T1, GST fused p85α-CSH2 (C-terminal Src-homology 2 domain of p85α) (UniProt P27986 623-706); assay: as above; conditions: one partner purified
T1 construct: C-terminal SH2 (CSH2) domain of the p85α regulatory subunit of PI3K; the limits 623-706 are told of the domain in the discussion, not in the methods of this assay; also called GST–CSH2; CSH2-conjugated to GST; source: E. coli expressed
T1 sequence (P27986 623-706): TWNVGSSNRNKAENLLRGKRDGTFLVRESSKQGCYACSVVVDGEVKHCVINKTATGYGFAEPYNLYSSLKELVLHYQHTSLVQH

Sequence of in vitro translated PV (P10828 whole entry): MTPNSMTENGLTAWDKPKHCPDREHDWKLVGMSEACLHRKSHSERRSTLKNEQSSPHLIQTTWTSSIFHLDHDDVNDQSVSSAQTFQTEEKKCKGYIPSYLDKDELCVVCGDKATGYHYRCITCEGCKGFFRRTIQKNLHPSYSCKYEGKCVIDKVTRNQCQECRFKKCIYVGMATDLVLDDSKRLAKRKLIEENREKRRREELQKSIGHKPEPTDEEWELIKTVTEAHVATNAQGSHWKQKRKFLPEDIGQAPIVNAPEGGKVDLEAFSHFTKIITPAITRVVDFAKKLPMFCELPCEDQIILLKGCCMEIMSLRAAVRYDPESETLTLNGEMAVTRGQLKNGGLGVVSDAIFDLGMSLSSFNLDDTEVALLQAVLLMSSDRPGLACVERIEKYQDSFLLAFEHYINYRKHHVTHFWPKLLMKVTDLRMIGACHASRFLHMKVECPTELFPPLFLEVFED
Sequence of GST fused p85α-CSH2 (C-terminal Src-homology 2 domain of p85α) (UniProt P27986) (P27986 623-706): as the sequence (P27986 623-706) above

Molecule	fold association relative to TRβ1 [1] [fold]	fold association relative to TRβ1 [2] [fold]
in vitro translated PV (from UniProt P10828 1-461) (receptor)	3	
in vitro translated AM (receptor, human, UniProt P10828 1-461, looked up, source: in vitro translated (TNT T7 quick coupled kit, Promega)) MTPNSMTENGLTAWDKPKHCPDREHDWKLVGMSEACLHRKSHSERRSTLKNEQSSPHLIQTTWTSSIFHLDHDDVNDQSVSSAQTFQTEEKKCKGYIPSYLDKDELCVVCGDKATGYHYRCITCEGCKGFFRRTIQKNLHPSYSCKYEGKCVIDKVTRNQCQECRFKKCIYVGMATDLVLDDSKRLAKRKLIEENREKRRREELQKSIGHKPEPTDEEWELIKTVTEAHVATNAQGSHWKQKRKFLPEDIGQAPIVNAPEGGKVDLEAFSHFTKIITPAITRVVDFAKKLPMFCELPCEDQIILLKGCCMEIMSLRAAVRYDPESETLTLNGEMAVTRGQLKNGGLGVVSDAIFDLGMSLSSFNLDDTEVALLQAVLLMSSDRPGLACVERIEKYQDSFLLAFEHYINYRKHHVTHFWPKLLMKVTDLRMIGACHCQPLPAHEGGMPTELFPPLFLEVFED		3
